Results: the Immune Epitope Database (IEDB)
Blank lines part the entries; values can stand above or below the sequence they belong to.

Legend:
HLA-B*57:01 [1] = test: IEDB peptide-MHC binding, purified MHC/competitive/radioactivity; filed as Kd, often an IC50 or EC50 that approximates it; ≥ and ≤ were set here for values at or beyond the usual limits of such assays
HLA-B*58:01 [2] = test: as above
HLA-A*03:01 [3] = test: IEDB peptide-MHC binding, purified MHC/competitive/fluorescence; filed as Kd, often an IC50 or EC50 that approximates it; ≥ and ≤ were set here for values at or beyond the usual limits of such assays
HLA-A*02:19 = test: as above
HLA-B*39:01 [4] = test: as above
HLA-A*02:12 [5] = test: as above
HLA-A*24:03 [6] = test: as above
HLA-B*57:01 [7] = test: as above
HLA-A*69:01 [8] = test: as above; conditions: source organism: Escherichia coli str. K-12 substr. W3110
HLA-A*26:01 = test: as above
HLA-B*51:01 = test: as above
HLA-A*02:01 [9] = test: as above
HLA-B*15:17 = test: as above; conditions: source organism: Escherichia coli str. K-12 substr. W3110
HLA-B*18:01 [10] = test: as above
HLA-A*68:02 [11] = test: as above; conditions: source organism: Escherichia coli str. K-12 substr. W3110
HLA-B*27:03 = test: as above
HLA-B*46:01 [12] = test: as above; conditions: source organism: Escherichia coli str. K-12 substr. W3110
HLA-A*02:03 = test: as above; conditions: source organism: Bacillus cereus G9241
HLA-C*15:02 = test: IEDB peptide-MHC binding, purified MHC/direct/fluorescence; filed as Kd, often an IC50 or EC50 that approximates it; ≥ and ≤ were set here for values at or beyond the usual limits of such assays; conditions: source organism: Bacillus cereus G9241
HLA-A*32:01 = test: IEDB peptide-MHC binding, purified MHC/competitive/radioactivity; filed as Kd, often an IC50 or EC50 that approximates it; ≥ and ≤ were set here for values at or beyond the usual limits of such assays; conditions: source organism: Dengue virus 4 Philippines/H241/1956
HLA-B*83:01 = test: IEDB peptide-MHC binding, purified MHC/competitive/fluorescence; filed as Kd, often an IC50 or EC50 that approximates it; ≥ and ≤ were set here for values at or beyond the usual limits of such assays; conditions: source organism: Mycobacterium tuberculosis H37Rv
HLA-B*15:42 = test: as above; conditions: source organism: Mycobacterium tuberculosis H37Rv
HLA-B*45:06 = test: as above; conditions: source organism: Mycobacterium tuberculosis H37Rv
HLA-B*15:01 [13] = test: as above; conditions: source organism: Vibrio vulnificus CMCP6
HLA-A*02:11 = test: IEDB peptide-MHC binding, purified MHC/direct/fluorescence; filed as Kd, often an IC50 or EC50 that approximates it; ≥ and ≤ were set here for values at or beyond the usual limits of such assays; conditions: source organism: Reston ebolavirus
HLA-A*03:01 [14] = test: as above; conditions: source organism: Reston ebolavirus - Reston
HLA-A*31:01 = test: as above; conditions: source organism: Reston ebolavirus - Reston
HLA-B*39:01 [15] = test: as above; conditions: source organism: Reston ebolavirus - Reston
HLA-A*02:12 [16] = test: as above; conditions: source organism: Reston ebolavirus
HLA-B*40:01 = test: as above; conditions: source organism: Reston ebolavirus - Reston
HLA-A*24:03 [17] = test: as above; conditions: source organism: Reston ebolavirus
HLA-A*29:02 = test: as above; conditions: source organism: Reston ebolavirus - Reston
HLA-B*57:01 [18] = test: as above; conditions: source organism: Reston ebolavirus - Reston
HLA-A*69:01 [19] = test: as above; conditions: source organism: Reston ebolavirus - Reston
HLA-B*44:02 = test: as above; conditions: source organism: Reston ebolavirus - Reston
HLA-A*02:01 [20] = test: as above; conditions: source organism: Reston ebolavirus - Reston
HLA-B*58:01 [21] = test: as above; conditions: source organism: Reston ebolavirus - Reston
HLA-B*15:01 [22] = test: as above; conditions: source organism: Reston ebolavirus - Reston
HLA-A*01:01 = test: as above; conditions: source organism: Reston ebolavirus - Reston
HLA-B*07:02 = test: as above; conditions: source organism: Reston ebolavirus - Reston
HLA-B*18:01 [23] = test: as above; conditions: source organism: Reston ebolavirus - Reston
HLA-A*68:02 [24] = test: as above; conditions: source organism: Reston ebolavirus
HLA-B*27:05 = test: as above; conditions: source organism: Reston ebolavirus - Reston
HLA-B*48:01 = test: as above; conditions: source organism: Reston ebolavirus - Reston
HLA-A*23:01 = test: as above; conditions: source organism: Reston ebolavirus
HLA-B*46:01 [25] = test: as above; conditions: source organism: Reston ebolavirus - Reston
[26] = source organism: Dengue virus 2 Jamaica/1409/1983
[27] = source organism: Escherichia coli str. K-12 substr. W3110
[28] = source organism: Bacillus cereus G9241
[29] = source organism: Dengue virus 4 Philippines/H241/1956
[30] = source organism: Vibrio vulnificus CMCP6
[31] = source organism: Reston ebolavirus
[32] = source organism: Dengue virus 1 Brazil/97-11/1997

Sequence: KAINVLRGF
- Kd (HLA-B*57:01 [1]; [26]): 0.00343 µM
- Kd (HLA-B*58:01 [2]; [26]): 0.043 µM

- Kd (HLA-A*03:01 [3]; [27]): ≥ 20 µM
- Kd (HLA-A*02:19; [27]): ≥ 20 µM
- Kd (HLA-B*39:01 [4]; [27]): ≥ 20 µM
- Kd (HLA-A*02:12 [5]; [27]): 0.624 µM
- Kd (HLA-A*24:03 [6]; [27]): ≥ 20 µM
- Kd (HLA-B*57:01 [7]; [27]): ≥ 20 µM
- Kd (HLA-A*69:01 [8]): ≥ 20 µM
- Kd (HLA-A*26:01; [27]): ≥ 20 µM
- Kd (HLA-B*51:01; [27]): ≥ 20 µM
- Kd (HLA-A*02:01 [9]; [27]): ≥ 20 µM
- Kd (HLA-B*15:17): ≥ 20 µM
- Kd (HLA-B*18:01 [10]; [27]): ≥ 20 µM
- Kd (HLA-A*68:02 [11]): ≥ 20 µM
- Kd (HLA-B*27:03; [27]): ≥ 20 µM
- Kd (HLA-B*46:01 [12]): ≥ 20 µM
Sequence: IQFDWYPTS

Sequence: ASSLLKNDIP
- Kd (HLA-B*57:01 [1]; [26]): 8.58 µM
- Kd (HLA-B*58:01 [2]; [26]): 2.1 µM

Sequence: ITNPFFYQM
- Kd (HLA-A*03:01 [3]; [28]): ≥ 20 µM
- Kd (HLA-B*39:01 [4]; [28]): ≥ 20 µM
- Kd (HLA-B*57:01 [7]; [28]): 0.27 µM
- Kd (HLA-A*26:01; [28]): ≥ 20 µM
- Kd (HLA-A*02:03): ≥ 20 µM
- Kd (HLA-B*18:01 [10]; [28]): ≥ 20 µM
- Kd (HLA-B*27:03; [28]): ≥ 20 µM
- Kd (HLA-C*15:02): 0.056 µM

Sequence: RSWNTGFDW
- Kd (HLA-A*32:01): 0.0447 µM
- Kd (HLA-B*57:01 [1]; [29]): 0.0138 µM
- Kd (HLA-B*58:01 [2]; [29]): 0.0179 µM

Sequence: FPRIGTAVF
- Kd (HLA-B*83:01): 8.31 µM
- Kd (HLA-B*15:42): ≥ 5 µM
- Kd (HLA-B*45:06): ≥ 5 µM

Sequence: VASGLLWVAE
- Kd (HLA-B*57:01 [1]; [29]): ≥ 70.4 µM
- Kd (HLA-B*58:01 [2]; [29]): 0.0754 µM

Sequence: LMLHQQYNQ
- Kd (HLA-A*03:01 [3]; [30]): ≥ 20 µM
- Kd (HLA-A*02:19; [30]): ≥ 20 µM
- Kd (HLA-B*39:01 [4]; [30]): ≥ 20 µM
- Kd (HLA-A*02:12 [5]; [30]): 0.186 µM
- Kd (HLA-A*24:03 [6]; [30]): ≥ 20 µM
- Kd (HLA-B*57:01 [7]; [30]): ≥ 20 µM
- Kd (HLA-A*26:01; [30]): ≥ 20 µM
- Kd (HLA-B*51:01; [30]): ≥ 20 µM
- Kd (HLA-A*02:01 [9]; [30]): 0.191 µM
- Kd (HLA-B*15:01 [13]): ≥ 20 µM
- Kd (HLA-B*18:01 [10]; [30]): ≥ 20 µM
- Kd (HLA-B*27:03; [30]): ≥ 20 µM

Sequence: KHDFIDNPL
- Kd (HLA-A*26:01; [31]): ≥ 20 µM
- Kd (HLA-B*51:01; [31]): ≥ 20 µM
- Kd (HLA-B*27:03; [31]): ≥ 20 µM
- Kd (HLA-A*02:11): ≥ 20 µM
- Kd (HLA-A*03:01 [14]): ≥ 20 µM
- Kd (HLA-A*31:01): ≥ 20 µM
- Kd (HLA-B*39:01 [15]): 4.89 µM
- Kd (HLA-A*02:12 [16]): ≥ 20 µM
- Kd (HLA-B*40:01): ≥ 20 µM
- Kd (HLA-A*24:03 [17]): ≥ 20 µM
- Kd (HLA-A*29:02): ≥ 20 µM
- Kd (HLA-B*57:01 [18]): ≥ 20 µM
- Kd (HLA-A*69:01 [19]): ≥ 20 µM
- Kd (HLA-B*44:02): ≥ 20 µM
- Kd (HLA-A*02:01 [20]): ≥ 20 µM
- Kd (HLA-B*58:01 [21]): ≥ 20 µM
- Kd (HLA-B*15:01 [22]): ≥ 20 µM
- Kd (HLA-A*01:01): ≥ 20 µM
- Kd (HLA-B*07:02): ≥ 20 µM
- Kd (HLA-B*18:01 [23]): ≥ 20 µM
- Kd (HLA-A*68:02 [24]): ≥ 20 µM
- Kd (HLA-B*27:05): ≥ 20 µM
- Kd (HLA-B*48:01): ≥ 20 µM
- Kd (HLA-A*23:01): ≥ 20 µM
- Kd (HLA-B*46:01 [25]): ≥ 20 µM

Sequence: ASSALLWMAS
- Kd (HLA-B*57:01 [1]; [32]): 17.1 µM
- Kd (HLA-B*58:01 [2]; [32]): 17 µM

Sequence: KSYAQMWQL
- Kd (HLA-B*57:01 [1]; [32]): 0.00198 µM
- Kd (HLA-B*58:01 [2]; [32]): 0.00783 µM

Sequence: TAAVLMLVAH
- Kd (HLA-B*58:01 [2]; [32]): 5.54 µM
